# What was measured:
# [1] = biological target: 003m-P215S-1×GCN4t-3N; assay: flow cytometry, Expi293F cells, Lipofectamine 2000-mRNA
# [2] = biological target: 003m-P215S-1×GCN4t-2N; assay: as above
# [3] = biological target: 003m-P215S-1×GCN4t-1,2N; assay: as above
# [4] = biological target: 003m-P215S-1×Fibritin (RSV); assay: as above
# [5] = biological target: 003m-P215S-1×GCN4t-1,2,3N; assay: as above
# [6] = biological target: 003m-P215S-1×Fibritin-1N (RSV); assay: as above
# [7] = biological target: RSV B-003m-P215S-1×GCN4t-D92E (RSV B); assay: flow cytometry, Expi293F cells, Lipofectamine 2000-mRNA; mRNA RQ2
# [8] = biological target: RSV B-003m-P215S-1×GCN4t-ori_linker (RSV B); assay: as above
# [9] = biological target: RSV B-003m-P215S-1×GCN4t-F190S (RSV B); assay: as above
# [10] = biological target: RSV B-003m-P215S-1×GCN4t-C155S-C290S (RSV B); assay: as above
# [11] = biological target: RSV B-003m-P215S-1×GCN4t-C486D-C489D (RSV B); assay: as above
# [12] = biological target: RSV B-003m-P215S-1×GCN4t (RSV B); assay: as above
# [13] = biological target: RSV B-003m-P215S (RSV B); assay: as above
# [14] = biological target: RSV B-003m-P215S-1×GCN4t-C102A-C362S (RSV B); assay: as above
# [15] = biological target: RSV B-003m-P215S-1×GCN4t-G46S (RSV B); assay: as above
# [16] = biological target: 003m-P215S-1×GCN4t (RSV); assay: flow cytometry, Expi293F cells, Lipofectamine 2000-mRNA; row 003M-P215S-1×GCN4t (ORIG)
# [17] = biological target: 003m-P215S-ΔF111-1×GCN4t (RSV); assay: flow cytometry, Expi293F cells, mRNA-LNP (RL151); row 003m-P215S-ΔF111-1×GCN4t
# [18] = biological target: RSV B-003m-P215S-1×GCN4t-D92E (RSV B); assay: flow cytometry, Expi293F cells, Lipofectamine 2000-mRNA; mRNA RQ3
# [19] = biological target: RSV B-003m-P215S-1×GCN4t-ori_linker (RSV B); assay: as above
# [20] = biological target: RSV B-003m-P215S-1×GCN4t-F190S (RSV B); assay: as above
# [21] = biological target: RSV B-003m-P215S-1×GCN4t-C155S-C290S (RSV B); assay: as above
# [22] = biological target: RSV B-003m-P215S-1×GCN4t-C486D-C489D (RSV B); assay: as above
# [23] = biological target: RSV B-003m-P215S-1×GCN4t (RSV B); assay: as above
# [24] = biological target: RSV B-003m-P215S (RSV B); assay: as above
# [25] = biological target: RSV B-003m-P215S-1×GCN4t-C102A-C362S (RSV B); assay: as above
# [26] = biological target: RSV B-003m-P215S-1×GCN4t-G46S (RSV B); assay: as above
# [27] = biological target: 003m-1×GCN4t (RSV); assay: flow cytometry, Expi293F cells transfected with the antigen's mRNA
# [28] = biological target: 003m-2×GCN4t (RSV); assay: as above
# [29] = biological target: DS-Cav1 (RSV); assay: as above
# [30] = biological target: DS-Cav1-1×GCN4t (RSV); assay: as above
# [31] = biological target: DS-Cav1-2×GCN4t (RSV); assay: as above
# [32] = biological target: 003m-P215S-ΔF111-1×GCN4t (RSV); assay: flow cytometry, Expi293F cells, Lipofectamine 2000-mRNA
# [33] = biological target: 003m-P215S-ΔF111 (RSV); assay: as above
# [34] = biological target: 003m-P215S-S-3N; assay: as above
# [35] = biological target: 003m-P215S-ΔF111-S-3N; assay: as above
# [36] = biological target: 003m-P215S-1×GCN4t (RSV); assay: as above
# [37] = biological target: 003m-P215S (RSV); assay: as above
Substance,MFI [1],MFI [2],MFI [3],MFI [4],MFI [5],MFI [6],MFI [7],MFI [8],MFI [9],MFI [10],MFI [11],MFI [12],MFI [13],MFI [14],MFI [15],MFI [16],MFI [17],MFI [18],MFI [19],MFI [20],further results
AM14-AF488 (antibody),25100,28800,58400,22300,89600,242000,792,286,11300,36300,8080,5300,521000,3940,3670,2560,821,814,182,11200,MFI [21]: 47600; MFI [22]: 7590; MFI [23]: 5060; MFI [24]: 353000; MFI [25]: 4430; MFI [26]: 4100; MFI [27]: 6550; MFI [28]: 434000; MFI [29]: 108000; MFI [30]: 923; MFI [31]: 437; MFI [32]: 12500; MFI [33]: 1.52e+06; MFI [34]: 127000; MFI [35]: 1.08e+06; MFI [36]: 5650; MFI [37]: 759000
D25-AF488 (antibody),43400,54000,100000,23000,147000,235000,2480,556,13100,67300,8130,7110,379000,15700,4110,3840,682,2110,515,13100,MFI [21]: 93500; MFI [22]: 7160; MFI [23]: 6190; MFI [24]: 265000; MFI [25]: 16000; MFI [26]: 4220; MFI [27]: 12100; MFI [28]: 173000; MFI [29]: 145000; MFI [30]: 1790; MFI [31]: 1170; MFI [32]: 14700; MFI [33]: 1.02e+06; MFI [34]: 148000; MFI [35]: 704000; MFI [36]: 8630; MFI [37]: 486000
